Results as given in patent US20230331820A1 (GlaxoSmithKline, published 2023).
Like-named read-outs stand apart in the source and are kept apart here.

Tests used:
[1] = target: T1, gI WT: HSV2 gI wildtype ectodomain (HSV2, UniProt P06764 21-256); assay: ELISA, supernatant
[2] = target: T2, gEgI WT: HSV2 gEgI heterodimer comprising gE and gI wildtype ectodomains (HSV2, UniProt P89475 21-416; P06764 21-256); assay: Biacore SPR, gEgI HEK BMP1063 at 10 µg/ml for 180 s over the mAb
[3] = target: gE WT: HSV2 gE wildtype ectodomain (HSV2, UniProt P89475 21-416); assay: ELISA, supernatant
[4] = target: gEgI mutant (338): HSV2 gEgI mutant heterodimer comprising gE and gI ectodomains with insertion of a (HSV2, UniProt P89475 21-416; P06764 21-256); assay: ELISA, supernatant
[5] = target: T2, gEgI WT: HSV2 gEgI heterodimer …; assay: Biacore SPR, gEgI CHO BMP1181 at 10 µg/ml for 180 s over the mAb
[6] = target: T2, gEgI WT: HSV2 gEgI heterodimer …; assay: SPR binning; gEgI captured by mAb 19
[7] = target: T2, gEgI WT: HSV2 gEgI heterodimer …; assay: SPR binning; gEgI captured by mAb 20
[8] = target: T2, gEgI WT: HSV2 gEgI heterodimer …; assay: SPR binning; gEgI captured by mAb 39
[9] = target: T2, gEgI WT: HSV2 gEgI heterodimer …; assay: SPR binning; gEgI captured by mAb 5
[10] = target: T2, gEgI WT: HSV2 gEgI heterodimer …; assay: SPR binning; gEgI captured by mAb 42
[11] = target: T2, gEgI WT: HSV2 gEgI heterodimer …; assay: SPR binning; gEgI captured by mAb 34
[12] = target: T2, gEgI WT: HSV2 gEgI heterodimer …; assay: SPR binning; gEgI captured by mAb 15
[13] = target: T1, gI WT: HSV2 gI wildtype ectodomain; assay: ELISA, supernatant; remark: listed apart in the source
[14] = target: T2, gEgI WT: HSV2 gEgI heterodimer …; assay: SPR binning; gEgI captured by mAb 24
[15] = target: T2, gEgI WT: HSV2 gEgI heterodimer …; assay: SPR binning; gEgI captured by mAb 9
[16] = target: T2, gEgI WT: HSV2 gEgI heterodimer …; assay: SPR binning; gEgI captured by mAb 10
[17] = target: T2, gEgI WT: HSV2 gEgI heterodimer …; assay: SPR binning; gEgI captured by mAb 17
[18] = target: T2, gEgI WT: HSV2 gEgI heterodimer …; assay: SPR binning; gEgI captured by mAb 40
[19] = target: T2, gEgI WT: HSV2 gEgI heterodimer …; assay: SPR binning; gEgI captured by mAb 45

Binder | binding result [1] | RU Ag/250 RU mAbs [2] [RU Ag/250 RU mAbs] | binding result [3] | binding result [4] | RU Ag/250 RU mAbs [5] [RU Ag/250 RU mAbs] | RU [6] [RU] | RU [7] [RU] | RU [8] [RU] | RU [9] [RU] | RU [10] [RU] | RU [11] [RU] | RU [12] [RU] | binding result [13] | RU [14] [RU] | RU [15] [RU] | RU [16] [RU] | RU [17] [RU] | RU [18] [RU] | RU [19] [RU]
mAb clone 2 (antibody, V domains shown) VH: QVQLQQSGAELVRPGTSVKVSCKASGYAFTNYLIEWVKQRPGQGLEWIGVINPGSGGTNYNEKFKGKATLTADKSSSTAYMQLSSLTSDDSAVYFCARSRGYPYAMDYWGQGTSVTVSS VL: not shown | binds | 1.24 | no binding | binds | -1.26 | – | – | – | – | – | – | – | – | – | – | – | – | – | –
mAb clone 9 (antibody, V domains shown) VH: EVQLQQSGPELEKPGASVKISCKASGYSFTGYNMNWVKQSNGKSLEWIGNIDPYYGGTSYNQKFKGKATLTLDKSSSTAYMQLKSLTSEDSAVYYCARSRFITTVVATDYYAMDYWGQGTSVTVSS VL: not shown | – | – | no binding | binds | – | -5.1 | 4.8 | 9 | 9.4 | 7 | 0.9 | 5.5 | no binding | -0.1 | -0.4 | 11 | 7.8 | 6 | 1.8
mAb clone 3, 21 (antibody, V domains shown) VH: EVQLQQSGPELVKPGASVKISCKTSGYTFTEYTMHWVKQSHGKSLEWIGGINPNNGGTSYNQKFKGKATLTVDKSSSTAYMELRSLTSEDSAVYYCARSLVEGDFAYWGQGTLVTVSA VL: DIVLTQSPASLAVSLGQRATISCRASQSVSTSSYSYMHWYQQKPGQPPKLLIKYASNLESGVPARFSGSGSGTDFTLNIHPVEEEDTATYYCQHSWEIPYTFGGGTKLEIK | – | 5.89 | binds | binds | 3.41 | – | – | – | – | – | – | – | no binding | – | – | – | – | – | –
mAb clone 15 (antibody, V domains shown) VH: QVQLKESGPGLVAPSQSLSITCTVSGFSLTSYGVSWVRQPPGKGLEWLGVIWGDGSTNYHSALISRLSISKDNSKSQVFLKLNSLQTDDTATYYCAKPDLYYDSPYAMDYWGQGTSVTVSS VL: DIQMTQSPASLSASVGETVTITCRASGNIHNYLAWYQQKQGKSPQLLVYNAKTLADGVPSRFSGSGSGTQYSLKINSLQPEDFGSYYCQHFWSTPWTFGGGTKLEIK | – | 31.5 | no binding | binds | 30.4 | 7.6 | 13 | 11.7 | 13.5 | 9.8 | 5.9 | -4.9 | no binding | 9.9 | 12.7 | 13.4 | 3.4 | 6.9 | 8.7
mAb clone 10 (antibody, V domains shown) VH: EVKLVESGGGLVQPGGSLRLSCATSGFTFSDFYMEWVRQPPGKRLEWIAASRNKANDYTTEYSASVKGRFIVSRDTSQSILYLQMNALRAEDTAIYYCARENYGNPAMDYWGQGTSVTVSS VL: not shown | – | – | no binding | binds | – | 2.3 | 10.8 | 10.3 | 10.6 | 9.4 | 2 | 3.3 | no binding | 8.2 | 8.3 | 4 | 8.2 | 8.3 | -2
mAb clone 20 (antibody, V domains shown) VH: QVQLQQSGAELVRPGTSVKVSCKASGYAFTNYLIEWVKQRPGQGLEWIGVINPGSGGTNYNEKFKGKATLTADKSSSTAYMQLSSLTSDDSAVYFCARSHYGNYYAMDYWGQGTSVTVSS VL: NIVLTQSPASLAVSLGQRATISCRASESVDSYGNSFMHWYQQKPGQPPKLLIYLASNLESGVPARFSGSGSRTDFTLTIDPVEADDAATYYCQQNNEDPWTFGGGTKLEIK | – | – | no binding | binds | – | 6.5 | 9.7 | 23.8 | 25.3 | 24.5 | 13.4 | 18.5 | no binding | 7.3 | 13 | 32.8 | 24 | 21.3 | 16.4
mAb clone 19 (antibody, V domains shown) VH: QVQLQQSGAELVRPGVSVKISCKGSGYTFTDYAMHWVKQSHAKSLEWIGVISTYYGDARYNQKFKGKATMTVDKSSSTAYMELARLTSEDSAIYYCARRGITVVADYAMDYWGQGTSVTVSS VL: QIVLTQSPAIMSASPGEKVTMSCSASSSVTYMHWYQQKSGTSPKRWIYDTSKLASGVPARFSGSGSGTSYSLTISSMEAEDAATYYCQQWSSNPPTFGGGTKLEIK | – | 7.88 | no binding | binds | 6.49 | -3.4 | 9 | 16.2 | 17.2 | 16.3 | 9.3 | 23 | no binding | 3.2 | 6.4 | 24.4 | 18.1 | 13.9 | 9.2
mAb clone 24 (antibody, V domains shown) VH: EVQLQQSGPELVKPGASVKMSCKASGYTFTDYYMKWVKQSHGKSLEWIGDINPNNGDTFYNQKFKGKATLTVDKSSSTAYMQLNSLTSEDSAVYYCARRGFYYYGSRGGIMDYWGQGTSVTVSS VL: NIMMTQSPSSLAVSAGEKVTMSCKSSQSVLYSSNQKNYLAWYQQKPGQSPKLLIYWASTRESGVPDRFTGSGSGTDFTLTISSVQAEDLAVYYCHQYLSSYTFGGGTKLEIK | – | – | no binding | binds | – | 13.3 | 17.7 | 30.5 | 34.4 | 30.7 | 20.7 | 42.6 | no binding | 6.4 | 17 | 39.1 | 32.1 | 28.3 | 26.8
mAb clone 17 (antibody, V domains shown) VH: QVQLKESGPGLVAPSQSLSITCTVSGFSLTSYGVHWVRQPPGKGLEWLGVIWAGGSSNYNSALMSRLSISKDNSKSQVFLKMNSLQTDDTAMYYCARDGYGYVYYAMDYWGQGTSVTVSS VL: DIVMTQAAPSVPVTPGESVSISCRSSKSLLHSNGNTYLYWFLQRPGQSPQLLIYRMSNLASGVPDRFSGSGSGTAFTLRISRVEAEDVGVYYCMQHLEYPFTFGAGTKLELK | – | – | no binding | binds | – | -6.3 | 2.2 | 0.5 | 0.5 | -0.8 | -9.4 | -6.7 | no binding | -2 | -0.5 | 4.6 | -8.7 | -2.4 | -2.6
